Measured values reported in patent publication US10144929B2, “Polypeptide inhibitors of Smad3 polypeptide activities” (Mayo Foundation for Medical Education and Research, priority 2016, dated 2018).
No end group written: not given here.

Molecular target: T1, pSmad3 (Mus musculus, UniProt Q8BUN5)
T1 construct: endogenous in cells; host or cells: AKR-2B cells
Assay: Nuclear import of pSmad3 (nuclear fractions Western, immunofluorescence) in AKR-2B cells
Format: cell-based
Details: 90 minutes transduction, TGFβ 5 ng/mL 1 hour
Method: FIGS. 1A-C. SH3 domain of sorting nexin 9 (SNX9) specifically binds pSmad3 and prevents nuclear import. (A) Cartoon depicting domains in full length (FL) SNX9 and constructs used for GST pull down assays. Lysates from AKR-2B cells untreated (−) or stimulated (+) for 45 minutes with 5 ng/mL TGFβ were incubated with GST beads or the indicated fusion polypeptides immobilized on GST beads. Bound polypeptides were eluted and assessed by Western analysis for pSmad3 or pSmad2. Cell lysate reflects signal obtained from 10 μg total protein. (B) AKR-2B cells were transduced for 90 minutes with the indicated concentrations of the TAT-SNX9(SH3) fusion polypeptides. […] Quantitation of nuclear pSmads was performed with Image J software and represents the mean+/−sd of two experiments (Right). […] Quantitation of nuclear Smad3 from 30 cells in each of two experiments (Right).
FIGS. 3A-E. Inhibition of Smad3 signaling by a defined region of the SH3 domain in SNX9. […] (B) Nuclear fractions were prepared and assessed as in FIG. 1B following transduction with the indicated TAT-SNX9(SH3) fusion polypeptide (Left). Quantitation (mean+/−sd) of nuclear pSmad2 or pSmad3 from 2 experiments (Right). (C) Immunofluorescence of nuclear Smad3 was determined as in FIG. 1C from 30 cells in each of two experiments in the absence (−) or presence (+) of 5 ng/mL TGFβ and the indicated TAT-SNX9(SH3) fusion polypeptide (1.5 μM). […]

T1 sequence (Q8BUN5 whole entry): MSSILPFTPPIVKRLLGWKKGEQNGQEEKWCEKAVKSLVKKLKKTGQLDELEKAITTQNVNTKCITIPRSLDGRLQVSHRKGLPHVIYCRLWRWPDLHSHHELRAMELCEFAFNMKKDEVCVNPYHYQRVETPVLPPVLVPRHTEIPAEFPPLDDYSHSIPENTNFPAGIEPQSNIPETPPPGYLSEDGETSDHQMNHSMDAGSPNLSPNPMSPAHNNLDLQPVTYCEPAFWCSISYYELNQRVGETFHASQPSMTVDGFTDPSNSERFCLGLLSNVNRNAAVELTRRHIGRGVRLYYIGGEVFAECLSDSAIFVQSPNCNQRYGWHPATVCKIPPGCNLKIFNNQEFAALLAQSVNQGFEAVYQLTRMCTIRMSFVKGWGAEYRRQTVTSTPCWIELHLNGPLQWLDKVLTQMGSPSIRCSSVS

TAT-containing polypeptide encoding amino acids 27-42 of SNX9: 16 mer TAT-SNX9(SH3) fusion polypeptide, SNX9 amino acids 27-42; probably SH3-2-2 (SEQ ID NO:34) (IITITNPDVGGGWLEG; also: TAT cell-penetrating peptide fusion; UniProt Q9Y5X1 27-42, looked up, fragment)
nuclear import of pSmad3: activity similar to that obtained with SB431542
